Patent CN112048019A

Legend:
[1] = biological target: CD47蛋白 (analyte in the ForteBio assay) (human) (UniProt Q08722); assay: BLI (ForteBio), antibody captured on Protein A sensor, CD47 protein in solution at 6 concentrations
[2] = biological target: CD47 on human cells (Jurkat target cells; human peripheral blood erythrocytes) (human) (UniProt Q08722); assay: cell-based or functional assay
重组CD47-Fc融合蛋白 (human) = 重组CD47-Fc融合蛋白 (human) (UniProt Q08722); assay: competition ELISA: CD47-Fc coated, antibody blocks binding of SIRPα-His, anti-His-HRP detection

B1: 市售抗体B6H12 (antibody, from another filing, V domains shown)
VH: EVQLVESGGDLVKPGGSLKLSCAASGFTFSGYGMSWVRQTPDKRLEWVATITSGGTYTYYPDSVKGRFTISRDNAKNTLYLQIDSLKSEDTAIYFCARSLAGNAMDYWGQGTSVTVSS
VL: DIVMTQSPATLSVTPGDRVSLSCRASQTISDYLHWYQQKSHESPRLLIKFASQSISGIPSRFSGSGSGSDFTLSINSVEPEDVGVYYCQNGHGFPRTFGGGTKLEIK
Kd [1]: 7.16 nM
koff [1]: 0.000463 s⁻¹
kon [1]: 64700 M⁻¹ s⁻¹
吞噬率/% (macrophage phagocytosis of CFSE-labelled Jurkat cells, flow cytometry) [2]: 18%
EC50 (重组CD47-Fc融合蛋白 (human)): 143 nM
